Source: patent US20240392024A1 (SHANGHAI CELGEN BIO PHARMACEUTICAL, published 2024)

T1: human TNFR2 on the cell membrane (human, UniProt P20333 23-461)
T1 construct: whole, on cells; One molecule for all cell formats; also called TNFR2-CHO cells; CHO-TNFR2
T1 sequence (looked up): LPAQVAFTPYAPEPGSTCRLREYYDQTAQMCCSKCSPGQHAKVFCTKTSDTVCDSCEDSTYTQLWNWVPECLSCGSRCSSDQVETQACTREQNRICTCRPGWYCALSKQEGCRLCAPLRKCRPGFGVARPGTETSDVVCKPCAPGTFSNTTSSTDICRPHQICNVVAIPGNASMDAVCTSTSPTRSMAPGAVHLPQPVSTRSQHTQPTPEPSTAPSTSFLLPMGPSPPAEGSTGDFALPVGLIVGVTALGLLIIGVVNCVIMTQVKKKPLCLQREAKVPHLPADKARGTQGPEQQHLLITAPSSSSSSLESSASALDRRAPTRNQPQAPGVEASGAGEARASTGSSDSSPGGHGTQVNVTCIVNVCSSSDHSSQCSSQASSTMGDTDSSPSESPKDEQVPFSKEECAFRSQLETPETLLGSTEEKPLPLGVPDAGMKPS

T2: recombinant human TNFR2 antigen (Kangdai, batch number A100114U) (human, UniProt P20333 23-257)
T2 construct: also called hTNFR2; TNFR2-FC (Shanghai Saijin Biopharmaceutical Co., Ltd., Qiangke, catalog number A100114U); not shown: Fc part of the bought TNFR2-FC
T2 sequence (looked up): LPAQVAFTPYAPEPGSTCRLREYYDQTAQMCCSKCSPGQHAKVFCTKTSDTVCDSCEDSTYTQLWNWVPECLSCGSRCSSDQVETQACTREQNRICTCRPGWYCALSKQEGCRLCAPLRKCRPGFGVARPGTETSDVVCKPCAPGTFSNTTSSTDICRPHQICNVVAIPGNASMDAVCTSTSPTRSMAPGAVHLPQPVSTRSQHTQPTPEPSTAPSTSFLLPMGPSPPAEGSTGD

T3: recombinant cynomolgus monkey TNFR2 (Cyno. TNFR2) (Sino Biological, 90102-C021) (cynomolgus monkey, UniProt A0A2K5VET2 132-366)
T3 sequence: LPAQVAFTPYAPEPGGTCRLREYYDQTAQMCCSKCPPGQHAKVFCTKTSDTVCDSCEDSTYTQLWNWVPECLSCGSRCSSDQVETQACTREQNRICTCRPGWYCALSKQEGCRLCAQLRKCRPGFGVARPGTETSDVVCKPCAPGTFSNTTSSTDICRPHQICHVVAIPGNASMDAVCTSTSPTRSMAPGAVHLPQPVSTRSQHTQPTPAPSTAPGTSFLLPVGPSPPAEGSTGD

T4: recombinant mouse TNFR2 (mTNFR2) (Sino Biological, 50128-M08H) (mouse, UniProt P25119 23-258)
T4 sequence (looked up): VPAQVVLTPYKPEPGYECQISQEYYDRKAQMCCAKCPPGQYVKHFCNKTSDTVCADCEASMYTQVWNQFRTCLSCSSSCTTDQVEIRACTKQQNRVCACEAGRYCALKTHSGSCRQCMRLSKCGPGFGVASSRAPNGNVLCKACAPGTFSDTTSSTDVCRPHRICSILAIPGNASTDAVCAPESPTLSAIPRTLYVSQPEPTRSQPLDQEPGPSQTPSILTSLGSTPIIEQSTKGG


Key:
[1] = target: T1, human TNFR2 on the cell membrane; test: flow cytometry, TNFR2-CHO cells
Description: (§1) Purified anti-human TNFR2 mouse monoclonal antibodies were co-incubated with TNFR2 overexpressing CHO cell lines (obtained routinely as follows: PCDNA3.4-TNFR2 was transfected into CHO cells, and stable high expression TNFR2 cell lines were obtained through drug screening and monoclonal sorting), and then stained. The antibody binding intensity was analyzed by flow cytometry. The specific steps are as follows: TNFR2-CHO cells were counted, centrifuged, resuspended, then added to a 96-deep well plate, and the supernatant was discarded. The anti-TNFR2 antibodies to be tested were gradient diluted, added to the 96-deep well plate. […] The samples were detected using Beckman CytoFLEX.

[2] = target: T2, recombinant human TNFR2 antigen …; test: ELISA, coated recombinant human TNFR2
Description: (§2) After TMB development, the detection was performed using microplate reader: dual wavelength 450 nm/655 nm detection, and results were calculated by OD₄₅₀-OD₆₅₅.

[3] = target: T1, human TNFR2 on the cell membrane; test: flow cytometry on TNFR2-CHO cells
Description: as §1

[4] = target: T3, recombinant cynomolgus monkey TNFR2 …; test: ELISA, plate coated with recombinant cynomolgus monkey TNFR2
Description: as §2
(§3) Using the same method as above, the TNFR2 antigens of cynomolgus monkey and mouse (Sino Biological, 90102-C021 and 50128-M08H) were coated separately. The anti-human TNFR2 mouse monoclonal antibodies to be tested were gradient diluted, then added with the anti-mouse Fab segment secondary antibody (Jackson Immuno Research, 515-035-072), and TMB development was performed. ELISA was used to detect the binding of 8 strains of mouse monoclonal antibodies to recombinant mouse TNFR2 (mTNFR2) and cynomolgus monkey TNFR2 (Cyno. TNFR2).

[5] = target: T2, recombinant human TNFR2 antigen …; test: ELISA, plate coated with recombinant human TNFR2 antigen
Description: as §2

[6] = target: T3, recombinant cynomolgus monkey TNFR2 …; test: ELISA, coated cynomolgus TNFR2
Description: as §2, §3

[7] = target: T4, recombinant mouse TNFR2 (mTNFR2) (Sino …); test: ELISA, coated mouse TNFR2
Description: as §2, §3

[8] = target: T1, human TNFR2 on the cell membrane; test: flow cytometry on human PBMC, CD3+ T cells
Description: Purified anti-human TNFR2 human-mouse chimeric monoclonal antibodies were co-cultured with PBMC cells (Oricells) and stained. The binding of the antibody was analyzed by flow cytometry. The specific steps are as follows: PBMC cells (Oricells) were counted, centrifuged, resuspended, then added to a 96-deep well plate, and the supernatant was discarded. Diluted anti-TNFR2 monoclonal antibodies were added.

Row | EC50 [1] [µg/mL] | EC50 [2] [µg/mL] | EC50 [3] [nM] | EC50 [4] [nM] | EC50 [5] [nM] | EC50 [6] [µg/mL] | binding result [7] | percent of cells in the upper right quadrant (Q1-UR, CD3+ and anti-human IgG Fc+) [8] [%] | Binder
1 | 0.147 | 0.0707 | 0.986 | 0.933 | 0.474 | 0.139 | no binding |  | anti-human TNFR2 mouse monoclonal antibody 12E12 (antibody, V domains shown) VH: EVQLQQSGAELVKPGASVKLSCTVSGFNIKDFYIHWVKQRPEQGLEWIGRVDPEDGNTEYAPNFQDRATMTTDTSSNTAYLQLSSLTSVDTAVYYCSTWDGFSYFDYWGLGTTLTVSS VL: QAVVTQESALTTSPGETVTLTCRSSTGPVTTNNYANWVQEKPDHLFTGLIGGTNDRAPGVPARFSGSLIGDKTALTITGTQTEDEAVYFCALWYRNHWVFGGGTKLTVL
2 |  |  |  |  |  |  |  | 9.66 | human-mouse chimeric TNFR2 monoclonal antibody 16D2-hFc (antibody, V domains shown, Mouse V regions of clone 16D2 with human constant regions) VH: EVQLQQSEPELVKPGASVKIPCKASGYTFTDYNMDWVKQSHGKSLEWIGDINPNNGVTIYNQKFKGKATLTVDKSSSTAYMELRSLTSEDTAVYYCVILEYFDYWGQGTTLTVSS VL: DIVMTQSTSSMSVSLGDTVSITCHASQGISSNIGWLQQKPGKSFKGLIYHGTKLEDGVPSRFSGSGSGADYSLTISSLESEDFADYYCVQYAQFPRTFGGGTKLEIK
3 | 0.364 | 0.0623 | 2.44 | 0.795 | 0.418 | 0.119 | no binding |  | anti-human TNFR2 mouse monoclonal antibody 7F2 (antibody, V domains shown) VH: QVTLKESGPGILQPSQTLSLTCSFSGFSLNTFGLGVGWIRQPSGKGLEWLTHIWWNDDKYYNPALKSRLTISRDTSENLVFLKIANVDTADTATYYCARIEGLRRFDYWGQGTTLTVSS VL: DIQMTQSPSSLSASLGGKVTITCKTSQDINKFIAWYQHKPGKGPRLLIHYTSTLQPGIPSRFSGSGSGRDYSFSISDLEPEDIATYYCLQYANLWAFGGGTKLEIK
